This passage reports Kd results from article PMC4027194.

The test system of the data set is G5 1297-1412 (RBS1). In words: EMSA. (Mobility shift assays separate free from complexed probe on a gel.)

In turn, FMDV IRES domain 5 displayed a Kd of 20 µM.

One may read the Kd as the equilibrium constant for the complex coming apart. Read a low Kd as tighter binding.
